Laboratory results taken from patent US10202584B2, “Red-shifted luciferase-luciferin pairs for enhanced bioluminescence” (The Regents of the University of California, priority 2016, dated 2019).

System: HEK 293T cells
Assay: Bioluminescence relative to FLuc with P2A bicistronic vectors in HEK 293T cells
Type: cell-based, Human
Details: 10,000 HEK 293T cells, 30 μM substrates, first 2 min integrated
From the text: FIG. 12 is a panel examining the impact of luciferase protein levels on bioluminescence intensities. (12a) Western blot analysis of HEK 293T cells expressing luciferases with C-terminal c-Myc tags. The relative proteins levels quantified from individual bands are shown in parentheses. These enzymes were expressed at different levels but the differences were within 3-fold. […] Under this condition, two luciferases in the same vectors are expected to be expressed near-stoichiometrically.

B1: NanoLuc: luciferase engineered from a 19 kDa domain of Oplophorus luciferase (SEQ ID NO: 1) (protein)
chain: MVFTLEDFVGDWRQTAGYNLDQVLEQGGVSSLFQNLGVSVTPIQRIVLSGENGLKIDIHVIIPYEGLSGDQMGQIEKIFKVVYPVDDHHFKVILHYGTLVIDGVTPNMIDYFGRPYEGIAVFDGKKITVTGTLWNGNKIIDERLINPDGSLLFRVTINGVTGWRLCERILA
modifications: Engineered mutant of Oplophorus gracilirostris polypeptide
bioluminescence relative to FLuc, P2A bicistronic vectors: Large bioluminescence enhancements
